Data set [1] deals with the molecule itself. The data set is described as follows: SEC-MALS; 5 to 20 mg/ml in 20 mM tris (pH 8.0), 150 mM KCl, 2 mM DTT; Superdex 200 Increase 10/300 GL at 0.5 ml/min.
Data set [2] addresses T1, SIX6OS1N (human SIX6OS1 amino acids 1 to 67) (human, UniProt Q8N1H7 1-67).
T1 construct: Protein SIX6OS1, human, amino acids 1 to 67; also called SIX6OS1 1–67; source: E. coli BL21(DE3), co-expressed with SYCE1 constructs, purified as complex (MBP removed by TEV); not shown: MBP, N-terminal, cleaved
T1 sequence (looked up): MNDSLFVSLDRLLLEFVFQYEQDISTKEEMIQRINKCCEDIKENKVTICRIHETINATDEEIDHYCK
The description is as above. Conditions: both partners purified.

B1: SYCE1core (human SYCE1 amino acids 25 to 179) (domain or fragment, UniProt Q8N0S2 25-179, looked up)
chain: GQDTSSQKIEDLMEMVQKLQKVGSLEPRVEVLINRINEVQQAKKKANKDLGEARTICEALQKELDSLHGEKVHLKEILSKKQETLRILRLHCQEKESEAHRKHTMLQECKERISALNLQIEEEKNKQRQLRLAFEEQLEDLMGQHKDLWDFHMPE
notes: Synaptonemal complex central element protein 1 (SYCE1), human, amino acids 25 to 179, numbers relative to the canonical 351-amino acid isoform; also called SYCE1 structural core; SYCE1 25–179; source: co-expressed with SIX6OS1N for the complex
Turning to B1, in data set [1], the binding result is reported as “binds”. Also, the “stoichiometry N” value in data set [2] came to 1.

B2: SYCE1POF (human SYCE1 amino acids 1 to 240, truncated product of the POF mutation c.613C>T, p.Gln241*) (domain or fragment, UniProt Q8N0S2 1-240, looked up)
chain: MAGRSLTSKAEPTAGAVDRAEKAGGQDTSSQKIEDLMEMVQKLQKVGSLEPRVEVLINRINEVQQAKKKANKDLGEARTICEALQKELDSLHGEKVHLKEILSKKQETLRILRLHCQEKESEAHRKHTMLQECKERISALNLQIEEEKNKQRQLRLAFEEQLEDLMGQHKDLWDFHMPERLAKEICALDSSKEQLLKEEKLVKATLEDVKHQLCSLCGAEGPSTLDEGLFLRSQEAAATV
notes: SYCE1, human, amino acids 1 to 240, relative to the canonical 351-amino acid isoform; product of the premature stop codon p.Gln241*; The purified material held about equal amounts of the full protein and a degradation product; source: also co-expressed with SIX6OS1N
Regarding B2, the “stoichiometry N” value in data set [1] came out at 2; in data set [2], 1.

B3: full-length SYCE1 (human) (natural protein, UniProt Q8N0S2 1-351, looked up)
chain: MAGRSLTSKAEPTAGAVDRAEKAGGQDTSSQKIEDLMEMVQKLQKVGSLEPRVEVLINRINEVQQAKKKANKDLGEARTICEALQKELDSLHGEKVHLKEILSKKQETLRILRLHCQEKESEAHRKHTMLQECKERISALNLQIEEEKNKQRQLRLAFEEQLEDLMGQHKDLWDFHMPERLAKEICALDSSKEQLLKEEKLVKATLEDVKHQLCSLCGAEGPSTLDEGLFLRSQEAAATVQLFQEEHRKAEELLAAAAQRHQQLQQKCQQQQQKRQRLKEELEKHGMQVPAQAQSTQEEEAGPGDVASPKPLKGERPGAAHQAGPDVLIGQEDTLHPDLSPRGFQEIKELF
notes: SYCE1, human, full length; canonical 351-amino acid isoform; source: E. coli BL21(DE3), purified; co-expressed with SIX6OS1N for the complex
As for B3, in data set [2], the “stoichiometry N” value was 1.

Values taken from paper PMC7467691, “Meiotic chromosome synapsis depends on multivalent SYCE1-SIX6OS1 interactions that are disrupted in cases of human infertility” (Science Advances, 2020).
